Experimental data taken from patent US12065466B2, “Methods and compositions for protein sequencing” (Quantum-Si Incorporated, priority 2020, dated 2024).

B1: PS415: ClpS protein, SEQ ID NO: 38 (protein)
chain: MALPETRTKIKPDVNIKEPPNYRVIYLNDDKTSMEFVIGSLMQHFSYPQQQAVEKTEEVHEHGSSTVAVLPYEMAEQKGIEVTLDARAEGFPLQVKIEPAER
B2: PS397: ClpS protein, SEQ ID NO: 25 (protein)
chain: MSDNEVAPKRKTRVKPKLERPRLYKVILVNDDYTPRDFVVMVLKAIFRMSEEAGYRVMMTAHKLGTSVVVVCARDIAETKAKEATDLGKEAGFPLMFTTEPEE
B3: PS396: ClpS protein, SEQ ID NO: 24 (protein)
chain: MSDNDVALKPKIKSKPKLERPKLYKVILVNDDFTPREFVIAVLKMVFRMSEETGYRVMLTAHRLGTSVVVVCARDIAETKAKEAVDFGKEAGFPLMFTTEPEE
B4: PS410: ClpS protein, SEQ ID NO: 33 (protein)
chain: MGDDDQSSREGEGDVAFQTADPELKRPSLYRVVLLNDDYTPMEFVVHILEQFFAMNREKATQVMLAVHTQGKGVCGVYTKDIAETKAALVNDYSRENQHPLLCEVEELDDESR
B5: PS411: ClpS protein, SEQ ID NO: 34 (protein)
chain: MTRPDAPEYDDDLAVEPAEPELARPPLYKVVLHNDDFTPMEFVVEVLQEFFNMDSEQAVQVMLAVHTQGKATCGIFTRDIAETKSYQVNEYARECEHPLMCDIEAAD
B6: PS413: ClpS protein, SEQ ID NO: 36 (protein)
chain: MMKQCGSYFLIKAVQDFKPLSKHRSDTDVITETKIQVKQPKLYTVIMYNDNYTTMDFVVYVLVEIFQHSIDKAYQLMMQIHESGQAAVALLPYDLAEMKVDEVTALAEQESYPLLTTIEPA
B7: PS405: ClpS protein, SEQ ID NO: 28 (protein)
chain: MVSIGAATVACAEGRPIFSGYFDWLAAMPETVTVPRTRLRPKTERPKLHKVILVNDDYTPREFVVTVLKGEFHMSEDQAQRVMITAHRRGVCVVAVFTKDVAETKATRASDAGRAKGYPLQFTTEPEE
B8: PS369: ClpS protein, SEQ ID NO: 2 (protein)
chain: MTSTLRARPARDTDLQHRPYPHYRIIVLDDDVNTFQHVVNCLVTFLPGMTRDQAWAMAQQVDGEGSAVVWTGPQEQAELYHVQLGNHGLTMAPLEPV
B9: PS417: ClpS protein, SEQ ID NO: 40 (protein)
chain: MSNLDTDVLIDEKVKVVTTEPEKYRVILLNDDVTPMDFVINILVSIFKHSTDTAKDLTLKIHKEGSAIVGVYTYEIAEQKGIEATNESRQHGFPLQVKIERENTL
B10: PS414: ClpS protein, SEQ ID NO: 37 (protein)
chain: MQAAGNEPPDPQNPGDVGNGGDGGNQDGSNTGVVVKTRTRTRKPAMYKVLMLNDDYTPMEFVVHVLERFFQKNREEATRIMLHVHRRGVGVCGVYTYEVAETKVTQVMDLARQNQHPLQCTIEKE
B11: PS370: ClpS protein, SEQ ID NO: 3 (protein)
chain: MFNSLGTVLDPKKSKAKYPEARVIVLDDNFNTFQHVANCLLAIIPRMCEQRAWDLTIKVDKAGSAEVWRGNLEQAELYHEQLFSKGLTMAPIEKT
B12: PS406: ClpS protein, SEQ ID NO: 29 (protein)
chain: MPDATTTPRTKTLTRTARPPLHKVILVNDDFTPREFVVRLLKAEFRTTGDEAQRIMITAHMKGSCVVAVFTREIAESKATRATETARAEGFPLLFTTEPEE
B13: PS404: ClpS protein, SEQ ID NO: 27 (protein)
chain: MPVSVTAPQTKTKTKPKVERPKLYKVILVNDDFTPREFVVRVLKAEFRMSEDQAAKVMMTAHQRGVCVVAVFTRDVAETKATRATDAGRAKGYPLLFTTEPEE
B14: PS398: ClpS protein, SEQ ID NO: 26 (protein)
chain: MPLKAQNRSIVGRRDEWPPPTTQSSSETKSESKRVSDTGADTKRKTKTVPKVEKPRLYKVILVNDDYTPREFVLVVLKAVFRMSEDQGYKVMITAHQKGSCVVAVYTRDIAETKAKEAVDLAKEIGFPLMFRTEPEE
B15: PS418: ClpS protein, SEQ ID NO: 41 (protein)
chain: MSDHNIDHDTSVAVHLDVVVREPPMYRVVLLNDDFTPMEFVVELLMHFFRKTAEQATQIMLNIHHEGVGVCGTYPREIAETKVAQVHQHARTNGHPLKCRMEPS
B16: PS419: ClpS protein, SEQ ID NO: 42 (protein)
chain: MEKEQSLCKEKTHVELSEPKHYKVVFHNDDFTTMDFVVKVLQLVFFKSQLQAEDLTMKIHLEGSATAGIYSYDIAQSKAQKTTQMAREEGFPLRLTVEPEDN
B17: PS412: ClpS protein, SEQ ID NO: 35 (protein)
chain: MATKREGSTLLEPTAAKVKPPPLYKVLLLNDDYTPMEFVVLVLKKFFGIDQERATQIMLKVHTEGVGVCGVYPRDIAHTKVEQVVDFARQHQHPLQCTMEES
B18: PS409: ClpS protein, SEQ ID NO: 32 (protein)
chain: MPARLTDIEGEPNTDPVEDVLLADPELKKPQMYAVVMYNDDYTPMEFVVDVLQNHFKHTLDSAISIMLAIHQQGKGIAGIYPKDIAETKAQTVNRKARQAGYPLLSQIEPQG
B19: PS416: ClpS protein, SEQ ID NO: 39 (protein)
chain: MTSQTDTLVKPNIQPPSLFKVIYINDSVTTMEFVVESLMSVFNHSADEATRLTQLVHEEGAAVVAILPYELAEQKGMEVTLLARNNGFPLAIRLEPAV
B20: PS407: ClpS protein, SEQ ID NO: 30 (protein)
chain: MPSNKRQMCLSDIKNSFNESGIVDWHISPRLANEPSEEGDSDLAVQTVPPELKRPPLYAVVLLNDDYTPMEFVIEILQQYFAMNLDQATQVMLTVHYEGKGVAGVYPRDIAETKANQVNNYARSQGHPLLCQIEPKD
B21: PS408: ClpS protein, SEQ ID NO: 31 (protein)
chain: MTDPPSKGREDVDLATRTKPKTQRPPLYKVLLLNDDFTPMEFVVHILERLFGMTHAQAIEIMLTVHRKGVAVVGVFSHEIAETKVAQVMELARRQQHPLQCTMEKE

Each molecule was assayed on amino acid at a terminal position of a polypeptide (assay: Amino acid binding preference of recognition proteins (Tables 1 and 2)). Details: Table 1, ClpS proteins; amino acid identity at a terminal position of a polypeptide; inferred from literature and/or demonstrated by the inventors.
From the text: It should be appreciated that these sequences and other examples described herein are meant to be non-limiting, and recognition molecules in accordance with the application can include any homologs, variants thereof, or fragments thereof minimally containing domains or subdomains responsible for peptide recognition.

Binding Pref.	Molecule
F, Y, W	B1
F, Y, W	B2
F, W	B3
F, W, L	B4
F, Y, W, L	B5
F, Y, W, L	B6
F, Y, W	B7
F, Y, W, L	B8
F, Y, W	B9
F, Y, W, L	B10
F, L	B11
F, Y, W	B12
F, Y, W	B13
F, W	B14
F, Y, W, L	B15
F, Y, W, L	B16
F, Y, W, L	B17
F, Y, W, L	B18
F, Y, W, L	B19
F, Y, W, L	B20
F, Y, W, L	B21
